From doi:10.1101/2020.11.19.389874 come the findings set out here.

Assay [1] concerns the target Urn8RA (Urinate Receptor isoform RA) expressed in CHO/G16 cells (Tribolium castaneum).
The target in assay [2] is Urn8RB (Urinate Receptor isoform RB) expressed in CHO/G16 cells (Tribolium castaneum).

With “Tribolium castaneum diuretic hormone 47 (DH47), unlabeled (peptide)”, the bioluminescence response of CHO/G16 cells expressing Urn8RA, dose-response, EC50 in assay [1] was 380 nM. For the same substance, the bioluminescence response of CHO/G16 cells expressing Urn8RB, dose-response, EC50 in assay [2] was 340 nM.

“Tribolium castaneum diuretic hormone 37 (DH37), unlabeled (peptide)” showed a bioluminescence response of CHO/G16 cells expressing Urn8RA, dose-response, EC50 in assay [1] of 160 nM. The substance further registered a bioluminescence response of CHO/G16 cells expressing Urn8RB, dose-response, EC50 in assay [2] of 450 nM.
